Laboratory results reported in patent US7148338B2, “Nucleic acids encoding dipeptidyl peptidases” (The University of Sydney, priority 1999, dated 2006).

Tests used:
[1] = target: T1, DPP8 (Homo sapiens, UniProt Q6V1X1); test: pH-dependence of DPP8 enzyme activity; type: biochemical
T1 construct: the full length DPP8 cDNA of 3.1 kb was cloned into the Xba I site of pcDNA3.1A/V5/His expression vector; expressed in transfected cells; host or cells: COS-7 (monkey kidney fibroblast) cells; clarified sonicated cell extract
Procedure: FIG. 7. DPP8 enzyme activity. (A) pH-dependence of DPP8 enzyme activity. (B) DPP8 and DPPIV enzyme kinetics. Means +/− SD of absorbance change per minute, multiplied by 1000 are shown. Curve fitting assumed Michaelis-Menten kinetics.
Enzyme assays were performed as described previously. Either clarified cell extract from 1×10^4 sonicated COS-7 cells or purified protein derived from 1×10^5 cells was incubated with substrate in 70 μL phosphate buffer, pH 7.4, for 30 min at 37° C., except where otherwise indicated. The specific DPPIV substrates, Gly-Pro-toluenesulfonate, H-Gly-Pro-p-nitroanilide (NA)/HCl (Sigma, St Louis, Mo., USA) and Gly-Pro-7-amino-4-trifluromethylcoumarin (Calbiochem, San Diego, Calif., USA) were tested. Other substrates tested were H-Ala-Pro-pNA/HCl, H-Arg-Pro-pNA acetate salt, H-Lys-Ala-pNA.2HCl, H-Asp-Pro-pNA, H-Ala-Ala-pNA/HCl, H-Ala-Ala-Pro-pNA/HCl, H-Ala-Ala-Phe-pNA, succinyl-Ala-Pro-pNA, H-Ala-Phe-Pro-pNA and Z-Ala-Pro-p-NA from Bachem (Switzerland). H-Ala-Pro-4-methoxyβNA/HCl, Z-Lys-Pro-4-methoxyβNAformate salt, H-Lys-Pro-4-methoxyβNA/HCl, Z-Ala-Pro-4-methoxyβNA, H-Gly-Pro-βNA and H-His-Ser-4-methoxyβNAacetate salt (Bachem) were tested for their ability to stain unfixed transfected cells. All inhibitors were (see Table 2) incubated with each purified enzyme in phosphate buffer, pH 7.4, for 15 min before the addition of substrate. […]

[2] = target: DPPIV (Homo sapiens, UniProt P27487); details: references [43,44]; cited from earlier work

B1: DPP8: novel human dipeptidyl peptidase, amino acid sequence SEQ ID NO:1, 882 amino acids (protein, listed as Homo Sapiens)
chain: MAAAMETEQLGVEIFETADCEENIESQDRPKLEPFYVERYSWSQLKKLLADTRKYHGYMMAKAPHDFMFVKRNDPDGPHSDRIYYLAMSGENRENTLFYSEIPKTINRAAVLMLSWKPLLDLFQATLDYGMYSREEELLRERKRIGTVGIASYDYHQGSGTFLFQAGSGIYHVKDGGPQGFTQQPLRPNLVETSCPNIRMDPKLCPADPDWIAFIHSNDIWISNIVTREERRLTYVHNELANMEEDARSAGVATFVLQEEFDRYSGYWWCPKAETTPSGGKILRILYEENDESEVEIIHVTSPMLETRRADSFRYPKTGTANPKVTFKMSEIMIDAEGRIIDVIDKELIQPFEILFEGVEYIARAGWTPEGKYAWSILLDRSQTRLQIVLISPELFIPVEDDVMERQRLIESVPDSVTPLIIYEETTDIWINIHDIFHVFPQSHEEEIEFIFASECKTGFRHLYKITSILKESKYKRSSGGLPAPSDFKCPIKEEIAITSGEWEVLGRHGSNIQVDEVRRLVYFEGTKDSPLEHHLYVVSYVNPGEVTRLTDRGYSHSCCISQHCDFFISKYSNQKNPHCVSLYKLSSPEDDPTCKTKEFWATILDSAGPLPDYTPPEIFSFESTTGFTLYGMLYKPHDLQPGKKYPTVLFIYGGPQVQLVNNRFKGVKYFRLNTLASLGYVVVVIDNRGSCHRGLKFEGAFKYKMGQIEIDDQVEGLQYLASRYDFIDLDRVGIHGWSYGGYLSLMALMQRSDIFRVAIAGAPVTLWIFYDTGYTERYMGHPDQNEQGYYLGSVAMQAEKFPSEPNRLLLLHGFLDENVHFAHTSILLSFLVRAGKPYDLQIYPQERHSIRVPESGEHYELHLLHYLQENLGSRIAALKVI
For B1, the “pH optimum of enzyme activity” value [1] was 7.4.

B2: DPPIV: dipeptidyl peptidase IV, comparator enzyme (protein)
chain: MKTPWKVLLGLLGAAALVTIITVPVVLLNKGTDDATADSRKTYTLTDYLKNTYRLKLYSLRWISDHEYLYKQENNILVFNAEYGNSSVFLENSTFDEFGHSINDYSISPDGQFILLEYNYVKQWRHSYTASYDIYDLNKRQLITEERIPNNTQWVTWSPVGHKLAYVWNNDIYVKIEPNLPSYRITWTGKEDIIYNGITDWVYEEEVFSAYSALWWSPNGTFLAYAQFNDTEVPLIEYSFYSDESLQYPKTVRVPYPKAGAVNPTVKFFVVNTDSLSSVTNATSIQITAPASMLIGDHYLCDVTWATQERISLQWLRRIQNYSVMDICDYDESSGRWNCLVARQHIEMSTTGWVGRFRPSEPHFTLDGNSFYKIISNEEGYRHICYFQIDKKDCTFITKGTWEVIGIEALTSDYLYYISNEYKGMPGGRNLYKIQLSDYTKVTCLSCELNPERCQYYSVSFSKEAKYYQLRCSGPGLPLYTLHSSVNDKGLRVLEDNSALDKMLQNVQMPSKKLDFIILNETKFWYQMILPPHFDKSKKYPLLLDVYAGPCSQKADTVFRLNWATYLASTENIIVASFDGRGSGYQGDKIMHAINRRLGTFEVEDQIEAARQFSKMGFVDNKRIAIWGWSYGGYVTSMVLGSGSGVFKCGIAVAPVSRWEYYDSVYTERYMGLPTPEDNLDHYRNSTVMSRAENFKQVEYLLIHGTADDNVHFQQSAQISKALVDVGVDFQAMWYTDEDHGIASSTAHQHIYTHMSHFIKQCFSLP
modifications: left off: small tags and cut ends
notes: dipeptidyl peptidase IV, comparator enzyme
In the case of B2, the “pH optimum of enzyme activity” value [2] is listed as 7.8.
